This note sets out measurements from US20030073808A1 (KIMBERLY CLARK WORLDWIDE, published 2003).

Primed or numbered codes have the meaning given here. Where no end group is shown, it is not given here. PSDE = pyridine disulfide ethylenediaminetetraacetic acid; AFTA = 2-amino-4-fluorophenol N,N,O-triacetic acid; AFTA″ = not defined here

Assay [1] concerns the target T1, Active MMP-9 enzyme (UniProt P14780 107-707, limits assumed).
T1 construct: Bought as 'Active MMP-9 enzyme' from Calbiochem
The assay can be described thus: enzyme inhibition of MMP-9 (FRET substrate peptide cleavage, inhibitory constants derived from the curves). As for the experimental part: FIG. 4 illustrates ChePep-5 regulation of MMP-9 via FRET assay. ChePep-5 is composed of a AFTA combined with a peptide having SEQ ID No. 7. ChePep-5 was incubated with MP-9 for 10 minutes to effect binding. This mixture was added to the FRET substrate peptide in reaction buffer. Fluorescence measurements were made at the indicated times. The curves represent ChepPep-5: MMP-9 molar stoichiometries of 0:1 (closed circles), 0.1:1 (open circles), 0.2:1 (closed squares), 0.3:1 (open squares). Excitation was at 365 nm, and the emission was fixed at 450 nm.
The second assay utilized the technique of fluorescence resonance energy transfer (FRET). The substrate peptide (Calbiochem #444221) comprised seven amino acids, coupled to a carboxyl terminal dinitrophenyl acceptor, and an amino terminal 2-aminobenzo-anthraniloyl (Abz) moiety donor. Cleavage of this substrate by MMP-9 results in the liberation of a fluorescent product (365 nm excitation, 450 nm emission). […] MMP at a concentration of 0.1 μM was mixed with varying amounts of chelating peptide (0, 0.01, 0.02, 0.04, and 0.1 μM) and incubated at 25° C. for 10 minutes to effect binding. The protein mixture was added to the peptide substrate and mixed quickly. Fluorescence intensity as a function of time was measured with a Dynex MFX fluorescence microtiter plate reader. Fluorescence intensity was related back to moles of peptide cleaved by producing a standard curve with an Abz containing non-FRET peptide. Inhibitory constants were derived from the curves and are listed below in Table 2.

The target of assay [2] is T1, Active MMP-9 enzyme. Put plainly: enzyme inhibition of MMP-9 (fluorescent substrate cleavage, inhibitory constants derived from the curves). As for the experimental part: Two enzymatic assays were performed. The first assay measured the enzymatic hydrolysis of fluoresceinated collagen by MMP-9 as a function of time. Fluoresceinated collagen (Molecular Probes, Inc.), at a concentration of 5 μM was added to reaction buffer (50 mM Tris-HCl (pH 7.6), 150 mM NaCl, 5 mM CaCl₂, 0.1 mM NaN₃) and was placed into a Spectrosil quartz fluorometer cuvette. MMP at a concentration of 0.1 μM was mixed with varying amounts of chelating peptide having SEQ ID No. 4 or 6 and incubated at 25° C. for 10 minutes to effect binding. The protein mixture was added to the collagen substrate and mixed quickly. Fluorescence emission intensity at 520 nm was measured as a function of time (excitation wavelength 495 nm) in a Shimadzu RF5301 fluorometer. The fluorescein release assay was used to determine the inhibitory constant (Kᵢ) of the chelating peptide inhibitor ([I]) according to Segel (1993) via the use of Dixon plots (1/v vs. [I]), such that: […]

T1 sequence (P14780 107-707 limits assumed): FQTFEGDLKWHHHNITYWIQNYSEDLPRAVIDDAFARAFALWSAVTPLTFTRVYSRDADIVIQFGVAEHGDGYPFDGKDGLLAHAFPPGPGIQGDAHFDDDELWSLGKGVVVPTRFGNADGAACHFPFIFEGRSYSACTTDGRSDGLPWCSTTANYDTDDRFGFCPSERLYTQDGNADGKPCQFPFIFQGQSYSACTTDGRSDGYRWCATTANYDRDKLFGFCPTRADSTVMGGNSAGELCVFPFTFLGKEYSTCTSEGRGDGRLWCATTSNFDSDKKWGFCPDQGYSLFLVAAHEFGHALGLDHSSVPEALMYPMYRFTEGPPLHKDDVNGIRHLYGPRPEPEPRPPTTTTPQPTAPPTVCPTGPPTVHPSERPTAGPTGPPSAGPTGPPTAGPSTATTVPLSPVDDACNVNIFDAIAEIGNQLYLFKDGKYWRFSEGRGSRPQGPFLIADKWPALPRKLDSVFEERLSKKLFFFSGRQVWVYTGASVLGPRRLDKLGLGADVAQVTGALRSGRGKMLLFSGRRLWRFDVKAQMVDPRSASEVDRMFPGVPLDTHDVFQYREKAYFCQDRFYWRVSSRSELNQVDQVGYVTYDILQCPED

For the molecule {AFTA}-VHTHLCD (also called ChepPep-5) [ChePep-5 (AFTA combined with a peptide having SEQ ID No. 7)], the Ki – broadly, the dissociation constant of the complex between target and ligand, obtained from inhibition or displacement – in assay [1] turned out to be 221 µM.

B1: ChePep-1 (PSDE coupled with the peptide having SEQ ID No. 4) (peptide)
peptide: C(PSDE)SAVPVH
notes: Synthetic TIMP-derived peptide covalently coupled to a small-molecule zinc chelator (PSDE); also called ChepPep-1; zinc chelating peptide
As for B1, the Ki in assay [2] turned out to be 98 µM.

D(IDA)SAVPVH-NH2 [ChePep-2 (IDA coupled with a peptide having SEQ ID No. 5)]: the Ki in assay [1] amounted to 67 µM.

B2: ChePep-6 (AFTA combined with a peptide having SEQ ID No. 8) (peptide)
peptide: {AFTA″}-CTCVP
modifications: cysteine pairing not given here; reading uncertain
notes: also called ChepPep-6; chelating peptide (CP)
For the molecule B2, the inhibition constant (Ki) in assay [1] is 125 µM.

IYTAC(PSDE)MSAV (not fully specified (C-terminus)) [ChePep-3 (PSDE combined with a peptide having SEQ ID No. 6)] registered a Ki in assay [1] of 350 µM.
